Measured values from a protein production outcome set (Wang et al. 2014).

Assay: label from the status in PepcDB records
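Note: failed if final PepcDB status was selected cloned or expressed and not failed if soluble or beyond.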

| Sequence | protein production |
| --- | --- |
| MAKAISAPITFAIILVIGILLLIPFLTYVTYLSQSNQISQAQFNNYIYLKNLEQQRAVSGRPGVYYNGSSLFILYSNGTFVPNASIVVVGILYLNNLGVWQNITSLKYPIILNRTGSVNLPSNVAGKPIILVTSLGNIFFLQPGSSIGPYSNSIGKGGVTIISQIYTSSQIYSTSINITTNINGKFSNYTTPITFPNQTGTFQVKAREYIYYINSKTGKVITGVFSNWQILGSATVNSTTTQGITVTLQGKPVILIANYSQLVQSVNLSIKTNANFSIVVNINGVNYTVNNHALSATVPAGYVNFTVYTLQGNDTSSMSSGIIKHYKFNTINYTGNTYVTNSQLLFLPPNSLPYVQINYVNDYNYYKVFLYDYYDSPPPPGGGLVVILNGTEYNYNNTYGYWIIGGNYSFVPTGIFNGSMSYEAKEVTIAGNNGILNYYFPDIPSYIIINQPMTITVYYDYVIKWVPI | failed |
| MMKEKLESKKDEIRCCYKITDTDVAVLLKMVEIEKPITSEELADIFKLSKTTVENSLKKLIELGLVVRTKTEGKKIGRPKYYYSISSNILEKIRNDLLNCAKRMELAAT | not failed |
| MSLMIKVEDMMTRHPHTLLRTHTLNDAKHLMEALDIRHVPIVDANKKLLGIVSQRDLLAAQESSLQRSAQGDSLAFETPLFEVMHTDVTSVAPQAGLKESAIYMQKHKIGCLPVVAKDVLVGIITDSDFVTIAINLLELQEESEPDELDEEQEGHHHHHH | not failed |
| MYKVGIVLFDDFTDVDFFLMNDLLGRTSDSWTVRILGTKPEHHSQLGMTVKTDGHVSEVKEQDVVLITSGYRGIPAALQDENFMSALKLDPSRQLIGSICAGSFVLHELGLLKGKKLTTNPDAKAVLQGMGGDVQDLPLVIEGNIATAGGCLSLLYLVGWLAERLFDSVKRKQIQNQLIPAGQMEIFETLISETIQSAESAYEYRSACESDAESLVV | not failed |
| MEYGFWLPIFGGWLRNVNDESMPPTFEYAKQTAQAAEQLGFSTTLIAELNLNDIKGVSAPSLEAWTTAAALAAVTDRLEIMTAVRPGFHNPAVTAKMAANIDQLSNGRFTLNVVSAWWEEEAKQYGGVFTAHDERYDRTEEFVTILKGLWKEEEFSYKGNFYELHHTHLSPKPVQKQGIKLYAGGESKRGKEVIVNHADAYVMHGGTVEEVSVKIEDMKNRRKKVTEEPLQSFGLAAYVICRHTEEEALEEWRRITDVKDDALGYAGYQDFVSKSQLEQQVKLNDYSVSNRGLRPNLIGTPEQIAERILAFEKVGVTLLLLQFSPQLEEMKRFSEKVMPLVEAKRKELIT | not failed |
| MASWLVLCRFVHFAVVLTLVGAWVFRPLLLGRDSAQSGHGAVHRQLDRLSRWLTLIGLGSGLCWLLLITASMAGSWSAALDPATVQLVLGKTFFGQVWTWHLLLNLLLLGLLLTPLGRRLPLQLGLGALLLATLAPVGHGAMLDGLAGQLLILNQVVHLSCVGIWLGGLLVLLLVLRQPPQASVEPLLRRFSGVGYGLVAGLLASGLINVRVLTGQWWPTPLFSGFALILLIKVLLVAGMLALALFNRLRIRGCDQRLASLRNSVQLEWLLGVAAVAAVSLLGTLPPMQVI | failed |
| MFDNLTDRLSRTLRNISGRGRLTEDNVKDTLREVRMALLEADVALPVVREFINRVKEKAVGHEVNKSLTPGQEFVKIVRNELVAAMGEENQTLNLAAQPPAVVLMAGLQGAGKTTSVGKLGKFLREKHKKKVLVVSADVYRPAAIKQLETLAEQVGVDFFPSDVGQKPVDIVNAALKEAKLKFYDVLLVDTAGRLHVDEAMMDEIKQVHASINPVETLFVVDAMTGQDAANTAKAFNEALPLTGVVLTKVDGDARGGAALSIRHITGKPIKFLGVGEKTEALEPFHPDRIASRILGMGDVLSLIEDIESKVDRAQAEKLASKLKKGDGFDLNDFLEQLRQMKNMGGMASLMGKLPGMGQIPDNVKSQMDDKVLVRMEAIINSMTMKERAKPEIIKGSRKRRIAAGCGMQVQDVNRLLKQFDDMQRMMKKMKKGGMAKMMRSMKGMMPPGFPGR | failed |
| MFDQYRKTILAGAVALTCGLTAASTFAAGFQPAQPAGKLGAVVVDPYGNAPLTALVELDSHIISDVKVTVHGKGEKGVPVTYTVGKESLETYDGIPIFGLYQKFANNVTVEYKENGKAMKDDYVVQTSAIVNHYMDNRSISDLQQTKVIKVAPGFEDRLYLVNTHTFTPQGAEFHWHGEKDKNAGILDAGPAGGALPFDIAPYTFVVDTQGEYRWWLDQDTFYDGHDMNINKRGYLMGIRETPRGTFTAVQGQHWYEFDMMGQILADHKLPRGFLDASHESIETVNGTVLLRVGKRVTAKKTAYMFILFVTKSLRSISLAALEHHHHHH | failed |
| MSRSTRSDQNARIRQRLGQPESGWRQRWYTIIFEADTRPGRTFDIVLLVAIIASVAVVMLDSIQAIHARLGTVFTALEWLFTLLFTTEYIMRLSVVRRPLRYVFSFYGIIDFLSIIPTWASFFVPELAFLIDVRLLRLLRVFRILKLTVYFEEAEILMLALSNSRRKIFVFLGTVFIITVILGTIMYVVEGPTHGFTSIPVSMYWAIVTLTTTGFGDMVPKTPIGQFITSITILLGYGIIAFPTGIVGAELAASIIRRPLTTRSCEHCLTEGHEPDATFCKHCGTALPEYRTELATDRRGDDGSRSR | failed |
| MSAFINQAAACAGDHAPRSAAQEARRGLRASLPVLLGFIPFALVLGAQATQKGLSVMEVPLMTGLNFGGGSEFTAIRLWTSPPHLLLIAAMSLLVNSRHLLMGAALAPYLRHVPRRRALAALFFMCDESWALALADAQSRATGRISLGYYLGVSAGLYLTWVVFTAIGAALGPVIGDVERYGFDMAFTAVFLVLLRGMWRGLRASRPWLASLAAAALTYRLMPDGAWYVAAGALAGLACAALTVPKEARA | failed |
| MIEKIIDLSVKNKLLTTLVTLLIFLASLWAIKSVRLDALPDLSPAQVVVQITYPNQSPKIVQEQVTYPLVSTFMSIANIDTVRGISSYESGLIYIIFKDGVNLYWARDRVLEQLNRVSNLPKDAKVEIGSDSTSIGWAYQYALSSDSKNLSDLKVLQDFYYRYALLGVDGVSEVASVGGFVKDYEVTLQNDSLIRYNLSLEQVANAIKNSNNDTGGGVILENGFEKIIRSHGYIQSLKDLEEIVVKKEGAIPLKIKDIASVRLTPKPRRGAANLNGDKEVVGGIVMVRYHADTYKVLKAIKEKIATLQASNPDVKITSVYDRSELIEKGIDNLIHTLIEESVIVLVIIAIFLLHFRSALVVIITLPLSVCISFLLMRYFNIEASIMSLGGIAIAIGAMVDAAIVMVENAHKHLQHIDVKDNAQRVNGIIEGVKHVGGAIFFALMIIVVSFLPIFALTGQEEKLFAPLAYTKTFAMLVGALLSITMVPILMVWLIKGRILEESKNPINAFFMKIYGVSLNVVLKFRYAFLIASVLGLGGLYVAYKKLNWEFIPQINEGVVMYMPVTINGVSIDTALEYLKKSNSAIKRLDFVKQVFGKVGRANTSTDAAGLSMIETYIELKPQNEWKEKLSYKEVRDKLEKTLQLKGLTNSWTYPIRGRTDMLLTGIRTPLGIKLYGNDTDKLQELAILMEQQLKTLKESLSVFAERSNNGYYITLDLNDENLARYGINKKAVLDAIKFALGGATLTTMIKGVENYPISLRLEDTERNTIEKLKNLYIKTAYNYMPLRELARIYYDNSPAVLKSEKGLNVNFIYIVPQNGISSDAYRQLAQKALEKIQLPNGYYYEFSGESQYLEEAFKTLQYIVPVSVFIIFILIVFALKNLTNSLLCFFTLPFAFLGGLIFMNLMGFNMSVAALVGFLALLGVASETAIVMIIYLEDAFQKFIKTPLKEQNSTTLKEAIMHGAVLRVRPKLMTFFSILASLIPIMYSHGTGSEIMKSIAAPMLGGMISSVVLTLFIIPTAYFVIKNAGIKSNQT | failed |
| MKEQYRNQNTFLSMIDMDLIRRGLLHAIQDLVFIVKVMDDETFTYIYVNKIGMDYAKLSEECYGKTFSEVLPKDTAEILQVQYAKVASEVKAHTFCDVVSLPTGNLHYESSLNPVFDEEGVCQFIICITRDIT | failed |
| MENTKKSPTYVYALGGLEEIGKNTYVVEHEDEIILIDAGIKFANASLPGFDGTVANFDYLIKNNHKIHSLVVTHGHEDHIGGIPHILRHVKIKTIYAPTLAAKLIERRLSEYKDIKPPRIIVFEDESMYKTKYFEVDFYRVCHSIPDSFGICVKTPNGYIVTTGDFRFDFATAGDETNLAKISQISNRGISVLMCESTSAEIPGFSESERYVIDNIRDYMVNIKGRTFISTFASNLGRVEEIIAIAVGLNKKICIIGKSMEANIKTSRKLGYLNVPESSFITHKELPFYKDHEIVVILTGSQGEKMAALNVMANNNHSKITLKPSDTIILSSNPIPGNYAQVEAMVNKLYKLGLTVYENSPNKKIHASGHATRSEHQLMIKAINPSYLFPIHGEYKMFRALKQNAVDQGFDKDHVIIAPNGQKLQLLDGVLSHTNIYVDAEPKFINGYEISSKISKLLSERVVLSSDGILNLVLNADFKKAKLNSAVSISTRGCFFAKESTNLINKISNVAKSSLEEALAKKEFDEKKLKEIVSGNVKSIVWKWRKKNPIINVTIINNDLVEQFRKDNNYVEFIKQAEVEEIEQEVDIDDLISNGL | failed |
| MEAARSMTFSECAALYIKAHRSSWKNTKHADQWTNTIKTYCGPVIGPLSVQDVDTKLIMKVLDPIWEQKPETASRLRGRIESVLDWATVRGYREGDNLEHHHHHH | failed |
| MHNLVPAPKQTQSVLIKNATVHTVIQGVLTNTDVLIENGKISALGPQLSTNTTASTQVVDASGKHLYPGLIALDTSLGLEHHHHHH | failed |
| MSSDESSDGLEELQSLKALYGQQEQEKPAKIKRERYIPKASQAKELNYVEVPMEKVLFGDRQRLLTNLAKSVGQKLPNDDEDEQEENPGQAKPGDKRKAAWSDSDDEDLQVGDVKKATKHTGPLNHLRKDKSYKEYLTARFQRTLNQPKWAEKKVKNEDDEDVSSDEELLRTVGFIDRKARNSDLPQKTLNFKRVKDLNRATYAEGNATSIQFHPTSTAALVAGMNGLATIYAVDGQKNERLHNMRFKKFPLACSRIAPCGTRAFFGSVKPFYYSYDLLEAKESKLKLPGAMEFMHRFEVSPCGKFIVTAGKFGAIHLLTAKTNELLHSFKQEGKVKGFTWSSDSKRILVCGSTSNVSVLNLRQNLIEHIFMDDGCIHGESIQLSPNQRLLATGSQEGVVNIYDYESIFASKAPQPEKRFMNLRTAITDLQFNHSSELLAMCSSEAPNAFKLAHFPSATVYSNFPAQNEKVGFVTSMAFSPHSSFLAFATKGKQVPLFRLKYFKGY | failed |
| MNALKNLSLILLLSLAFTGCHNKSSKINDFNLLLYAPEYASGFDIKGAGGKESVLITVRNPWQGADSVTTWLFIVRNGEEVPEGFAGQVLKGDAKRIVAMSSTHIAMLDAIGEVRCITGVSGIDYISNPDIQARRDSIGDVGYEGNINYELLLSLDPDLVLLYGVNGASAMESKLEELDIPFMYVGDYLEESPLGKAEWMVVLSEVTGKREKGEKAFAAIPVRYNALKKKVADSTLGTPSVMLNVPYGDSWFMPSTQSYVARLITDAGGRYIYQKNTGNASIPIDLEEAYLLASDADMWLNVGMANSLDDLKASCPKFTDTRCFKNGEVYNNNARTNTAGGNDYYESAVVNPDIVLRDLVKIFHPELVQEECVYYKQLK | failed |
| MGKLLFVDIGGTLLDYSNEVPRSAVDAIRKARAKGHRVYLSSGRSSAEVTSQLWDIGVDGLIGANGGYVESAQESVFHRRLSGEETRHIVEWLYNRGLEFYLESNNGLYASRGFREASKPVLSRLSEKTDVTVDSMYPDMFWGASLDRDDVNKISYIFNSQEDLDAAREAFPNLEHTTWGGQTGALFGTIGVSVNKKIGVDRLLKYLNADRANTIAFGDSDEDLSLFEASAYGVAMGEATESLKAAADLVTDAVGQDGLRNAFLKLELIDA | failed |
| MNLPILPTISTSFIVISAILIAIGWRQIWKRKIESHKKVMLAAAFFALAFFIIYASRTIFIGNTAFGGPDSIKIYYTIFLIFHINLATIGGILGLVQIITAFKDKFKVHRFVGPIASIVWFCTAITGVAVYLLLYVLYPGGETTSLLKATFGL | failed |
